Source: paper PMC4398322, “Snake neurotoxin α-bungarotoxin is an antagonist at native GABAA receptors” (Neuropharmacology, 2015)

How the values were obtained:
[1] = test system: Receptors containing α3/5/6 subunits and β1/2γ2; test: α-Bgtx-AF555 cell surface staining of transfected HEK-293 cells; format: binding, murine; details: 400 nM, 10 min RT; P > 0.05
Description: (§1) Murine GABAAR α1-6, β1-3, γ2 and δ cDNAs subcloned into pRK-5 and pEGFP-C1 have been described previously ([Mortensen et al., 2011]).
(§2) HEK-293 cells were maintained at 37 °C in a humidified 95% air/5% CO2 atmosphere in Dulbecco's modified Eagle's medium (DMEM) supplemented with 10% (v/v) fetal calf serum (FCS), penicillin-G and streptomycin (100 units/ml and 100 μg/ml), 2 mM L-glutamine. Cells were plated onto 22 mm glass coverslips (VWR), coated with poly-L-lysine (Sigma). All media components were from Life Technologies unless otherwise stated.
(§3) Cells were transfected with equimolar ratios of cDNAs encoding for α1–6, β1–3 and δ or γ2 GABAA receptor subunits along with eGFP using a calcium phosphate method ([Mortensen et al., 2011]) 15–45 min after plating.
(§4) Live transfected HEK-293 cells were studied 48 h after transfection and washed with Krebs to remove cell culture media and incubated in 400 nM α-Bgtx coupled with Alexa Fluor 555 (α-Bgtx-AF555; Life Technologies) for 10 min at room temperature (RT). Cells were washed and fixed in 4% paraformaldehyde (PFA; Sigma) for 10 min at RT. The cells were imaged immediately post-fixation in saline using a Zeiss LSM 510 Meta confocal microscope and an Achroplan x40 water DIC objective (NA 0.8) as described previously ([Hannan et al., 2012]). This involved choosing the optimal z-section and acquiring images as a mean of 4 scans in 16-bits using a 543 nm Helium–Neon laser and a 560 nm long-pass filter for α-Bgtx-AF555 and a 488 Argon laser with a 505–530 nm band-pass filter for eGFP.
(§5) Confocal images were analysed using ImageJ (version 1.410) as described previously ([Hannan et al., 2013]). For each cell the surface membrane was identified by drawing a region-of-interest (ROI) in the eGFP channel and this was transferred to the α-Bgtx-AF555 channel and the mean membrane fluorescence values were determined. Mean background fluorescence was determined from a region devoid of cells. This was subtracted from the mean membrane fluorescence providing a mean corrected fluorescence intensity value. These values, for different combinations of receptors and drugs, were graphically plotted using Origin.

α1β1γ2 GABAAR = target: T1, α1β1γ2 GABAAR (Mus musculus, UniProt P22723+P50571+P62812); test: as above; format: binding, murine; details: 400 nM α-Bgtx-AF555, 10 min RT; n = 6
T1 construct: expressed in transfected cells; host or cells: HEK-293
Description: as §1, §2, §3, §4, §5

α1β2γ2 GABAAR = target: T2, α1β2γ2 GABAAR (Mus musculus, UniProt P22723+P62812+P63137); test: as above; format: binding, murine; details: 400 nM α-Bgtx-AF555, 10 min RT; n = 6
T2 construct: expressed in transfected cells; host or cells: HEK-293
Description: as §1, §2, §3, §4, §5

α2β1γ2 GABAAR = target: T3, α2β1γ2 GABAAR (Mus musculus, UniProt P22723+P26048+P50571); test: as above; format: binding, murine; details: 400 nM α-Bgtx-AF555, 10 min RT; n = 6
T3 construct: expressed in transfected cells; host or cells: HEK-293
Description: as §1, §2, §3, §4, §5

α2β2γ2 GABAAR = target: T4, α2β2γ2 GABAAR (Mus musculus, UniProt P22723+P26048+P63137); test: as above; format: binding, murine; details: 400 nM α-Bgtx-AF555, 10 min RT; n = 6
T4 construct: expressed in transfected cells; host or cells: HEK-293
Description: as §1, §2, §3, §4, §5

α4β1γ2 GABAAR = target: T5, α4β1γ2 GABAAR (Mus musculus, UniProt P22723+P50571+Q9D6F4); test: as above; format: binding, murine; details: 400 nM α-Bgtx-AF555, 10 min RT; n = 6; not significant vs eGFP alone
T5 construct: expressed in transfected cells; host or cells: HEK-293
Description: as §1, §2, §3, §4, §5

α4β2γ2 GABAAR = target: T6, α4β2γ2 GABAAR (Mus musculus, UniProt P22723+P63137+Q9D6F4); test: as above; format: binding, murine; details: 400 nM α-Bgtx-AF555, 10 min RT; n = 6; not significant vs eGFP alone
T6 construct: expressed in transfected cells; host or cells: HEK-293
Description: as §1, §2, §3, §4, §5

[2] = test system: HEK-293 cells expressing only eGFP; test: α-Bgtx-AF555 cell surface staining of HEK-293 cells expressing only eGFP; format: binding; details: 400 nM α-Bgtx-AF555, 10 min RT, n = 6
Description: as §2, §3
Live transfected HEK-293 cells were studied 48 h after transfection and washed with Krebs to remove cell culture media and incubated in 400 nM α-Bgtx coupled with Alexa Fluor 555 (α-Bgtx-AF555; Life Technologies) for 10 min at room temperature (RT). […]
as §5, with “These values, for different combinations of receptors and drugs, were graphically plotted using Origin.” left out

β1 homomers = target: T7, β1 homomers (Mus musculus, UniProt P50571); test: α-Bgtx-AF555 staining of HEK-293 cells expressing β homomers, with or without permeabilisation; format: binding, murine; details: 400 nM α-Bgtx-AF555, with or without permeabilisation
T7 construct: expressed in transfected cells; host or cells: HEK-293
Description: as §1, §3, §4
(§6) In experiments using permeabilisation, cells were fixed in 4% PFA for 10 min at RT followed by washes (x3) in phosphate buffered saline (PBS; Sigma) and 0.1% triton-X100 (Sigma) was added for 10 min at RT in 10% (v/v) FCS. Cells were washed to remove the detergent and 400 nM α-Bgtx-AF555 was added for 10 min at RT to label intracellular receptors.
as §5

β2 homomers = target: T8, β2 homomers (Mus musculus, UniProt P63137); test: as above; format: binding, murine; details: 400 nM α-Bgtx-AF555, with or without permeabilisation
T8 construct: expressed in transfected cells; host or cells: HEK-293
Description: as §1, §3, §4, §6, §5

β3 homomers = target: T9, β3 homomers (Mus musculus, UniProt P63080); test: as above; format: binding, murine; details: 400 nM α-Bgtx-AF555, with or without permeabilisation
T9 construct: expressed in transfected cells; host or cells: HEK-293
Description: as §1, §3, §4, §6, §5

[3] = test system: E18 rat hippocampal cultured neurons; test: Live cell confocal microscopy of fluorescent α-Bgtx binding to cultured hippocampal neurons; details: 400 nM; untransfected neurons
Description: Dissociated hippocampal neurons were prepared from embryonic day 18 rat pups as described ([Hannan et al., 2012]). Briefly, hippocampi were dissected in ice-cold Hank's Balanced Salt Solution (HBSS) (Ca^2+/Mg^2+ free) before enzymatic dissociation in 0.1% (w/v) trypsin at 37 °C for 10 min followed by serial washes in pre-warmed HBSS to remove trypsin prior to trituration. Cells were mechanically dissociated using fire-polished glass Pasteur pipettes in plating medium composed of minimal essential medium (MEM) supplemented with 5% (v/v) fetal calf serum (FCS), 5% (v/v) horse serum, penicillin-G and streptomycin (200 units/ml and 200 μg/ml), 2 mM L-glutamine and 35 mM glucose. Cells were plated at a density of 10^6 per ml in plating medium on glass cover-slips previously coated with poly-D-lysine. The neurons were grown and maintained at 37 °C in a humidified 95% air/5% CO2 atmosphere.
In addition, low concentrations of fluorophore-conjugated α-Bgtx can also be used to avoid labelling of GABAARs as the affinity of α-Bgtx for endogenous GABAARs is lower compared to that for the BBS. […] Similarly, the over-expression of recombinant receptors in heterologous expression systems (HEK-293 cells) allows the detection of α-Bgtx fluorescence at low concentrations.

T1 sequence (P62812 28-455): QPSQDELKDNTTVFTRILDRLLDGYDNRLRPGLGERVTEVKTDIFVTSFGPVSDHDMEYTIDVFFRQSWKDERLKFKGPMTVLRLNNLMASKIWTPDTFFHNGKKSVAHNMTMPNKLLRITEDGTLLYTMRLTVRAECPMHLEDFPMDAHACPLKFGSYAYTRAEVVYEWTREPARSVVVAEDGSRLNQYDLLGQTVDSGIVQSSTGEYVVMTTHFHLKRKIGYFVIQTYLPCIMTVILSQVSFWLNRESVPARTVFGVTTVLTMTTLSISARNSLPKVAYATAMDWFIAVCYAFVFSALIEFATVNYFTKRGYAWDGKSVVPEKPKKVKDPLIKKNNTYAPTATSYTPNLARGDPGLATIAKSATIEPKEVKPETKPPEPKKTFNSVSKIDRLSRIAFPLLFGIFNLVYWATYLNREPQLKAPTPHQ
T1 sequence (P50571 26-474): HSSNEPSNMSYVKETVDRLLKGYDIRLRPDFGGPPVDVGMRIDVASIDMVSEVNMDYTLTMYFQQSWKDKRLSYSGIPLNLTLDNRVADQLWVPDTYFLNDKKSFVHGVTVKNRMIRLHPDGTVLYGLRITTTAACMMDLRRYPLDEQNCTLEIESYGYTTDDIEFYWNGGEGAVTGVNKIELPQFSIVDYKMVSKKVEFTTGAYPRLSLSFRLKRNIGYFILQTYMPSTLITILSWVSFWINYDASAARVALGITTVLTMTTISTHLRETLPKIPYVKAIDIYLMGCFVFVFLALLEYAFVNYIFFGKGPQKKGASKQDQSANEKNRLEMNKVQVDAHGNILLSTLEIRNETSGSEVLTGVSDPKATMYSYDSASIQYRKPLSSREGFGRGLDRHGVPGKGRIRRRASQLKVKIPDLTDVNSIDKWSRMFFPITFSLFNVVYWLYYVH
T1 sequence (P22723 39-474): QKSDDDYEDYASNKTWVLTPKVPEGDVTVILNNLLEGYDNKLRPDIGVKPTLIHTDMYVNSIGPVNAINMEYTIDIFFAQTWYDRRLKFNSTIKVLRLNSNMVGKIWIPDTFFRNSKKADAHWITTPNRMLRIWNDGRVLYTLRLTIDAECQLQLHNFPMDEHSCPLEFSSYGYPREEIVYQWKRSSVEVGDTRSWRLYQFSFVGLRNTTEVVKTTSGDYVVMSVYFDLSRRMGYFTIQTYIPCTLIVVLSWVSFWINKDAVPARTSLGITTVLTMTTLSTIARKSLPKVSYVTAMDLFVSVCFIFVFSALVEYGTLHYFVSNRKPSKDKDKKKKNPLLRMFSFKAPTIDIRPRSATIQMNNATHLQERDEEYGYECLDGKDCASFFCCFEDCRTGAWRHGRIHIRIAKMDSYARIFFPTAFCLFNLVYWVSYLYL
T9 sequence (P63080 26-473): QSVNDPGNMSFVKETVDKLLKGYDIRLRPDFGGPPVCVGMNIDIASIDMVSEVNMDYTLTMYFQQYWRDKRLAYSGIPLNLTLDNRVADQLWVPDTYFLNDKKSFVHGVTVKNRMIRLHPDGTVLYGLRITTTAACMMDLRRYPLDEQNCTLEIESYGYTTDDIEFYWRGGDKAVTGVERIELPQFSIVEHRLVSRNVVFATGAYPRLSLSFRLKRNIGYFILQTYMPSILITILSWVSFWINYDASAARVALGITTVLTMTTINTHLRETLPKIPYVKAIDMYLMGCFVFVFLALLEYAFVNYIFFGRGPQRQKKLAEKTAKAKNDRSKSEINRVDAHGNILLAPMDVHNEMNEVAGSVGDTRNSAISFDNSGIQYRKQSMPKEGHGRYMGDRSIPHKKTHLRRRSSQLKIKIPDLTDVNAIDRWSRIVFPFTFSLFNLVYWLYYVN
T3 sequence (P22723 39-474): as the sequence (P22723 39-474) above
T3 sequence (P50571 26-474): as the sequence (P50571 26-474) above
T3 sequence (P26048 29-451): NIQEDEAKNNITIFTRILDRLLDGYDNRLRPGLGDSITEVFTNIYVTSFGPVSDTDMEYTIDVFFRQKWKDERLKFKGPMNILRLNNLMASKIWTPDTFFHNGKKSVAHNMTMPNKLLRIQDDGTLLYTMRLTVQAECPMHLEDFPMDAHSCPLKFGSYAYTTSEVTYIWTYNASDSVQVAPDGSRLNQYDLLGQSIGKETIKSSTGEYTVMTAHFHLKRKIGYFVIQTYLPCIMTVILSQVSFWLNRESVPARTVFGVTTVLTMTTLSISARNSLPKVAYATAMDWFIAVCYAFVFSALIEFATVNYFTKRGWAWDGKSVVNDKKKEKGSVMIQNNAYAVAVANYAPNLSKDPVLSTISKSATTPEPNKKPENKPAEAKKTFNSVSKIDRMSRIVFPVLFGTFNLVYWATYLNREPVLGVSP
T6 sequence (P63137 25-512): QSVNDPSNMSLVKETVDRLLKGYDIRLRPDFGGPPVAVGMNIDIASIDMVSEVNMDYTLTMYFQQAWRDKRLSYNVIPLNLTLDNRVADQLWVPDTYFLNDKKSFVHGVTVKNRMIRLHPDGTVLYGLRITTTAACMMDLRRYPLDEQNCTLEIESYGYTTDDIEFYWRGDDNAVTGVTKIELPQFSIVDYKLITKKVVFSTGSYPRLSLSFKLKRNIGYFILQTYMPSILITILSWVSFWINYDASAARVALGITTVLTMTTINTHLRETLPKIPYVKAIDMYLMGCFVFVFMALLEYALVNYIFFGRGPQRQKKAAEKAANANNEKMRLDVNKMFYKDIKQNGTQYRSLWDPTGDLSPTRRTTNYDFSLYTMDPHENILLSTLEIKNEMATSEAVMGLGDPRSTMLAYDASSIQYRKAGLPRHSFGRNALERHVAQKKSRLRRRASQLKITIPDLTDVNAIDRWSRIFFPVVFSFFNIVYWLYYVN
T6 sequence (P22723 39-474): as the sequence (P22723 39-474) above
T6 sequence (Q9D6F4 36-552): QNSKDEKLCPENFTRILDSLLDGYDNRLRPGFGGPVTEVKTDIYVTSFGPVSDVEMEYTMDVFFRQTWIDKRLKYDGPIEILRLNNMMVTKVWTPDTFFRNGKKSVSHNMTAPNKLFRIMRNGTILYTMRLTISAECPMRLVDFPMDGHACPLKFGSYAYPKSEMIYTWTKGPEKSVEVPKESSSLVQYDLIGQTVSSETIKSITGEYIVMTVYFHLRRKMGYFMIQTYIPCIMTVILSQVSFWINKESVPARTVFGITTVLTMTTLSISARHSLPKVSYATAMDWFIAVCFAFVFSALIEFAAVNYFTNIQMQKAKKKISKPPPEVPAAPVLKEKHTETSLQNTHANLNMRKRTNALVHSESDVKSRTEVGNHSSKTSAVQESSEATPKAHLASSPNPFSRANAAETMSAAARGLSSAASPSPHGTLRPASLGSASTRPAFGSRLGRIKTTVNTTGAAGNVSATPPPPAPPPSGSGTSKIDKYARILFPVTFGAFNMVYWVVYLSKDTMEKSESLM
T2 sequence (P63137 25-512): as the sequence (P63137 25-512) above
T2 sequence (P22723 39-474): as the sequence (P22723 39-474) above
T2 sequence (P62812 28-455): as the sequence (P62812 28-455) above
T8 sequence (P63137 25-512): as the sequence (P63137 25-512) above
T4 sequence (P63137 25-512): as above
T4 sequence (P26048 29-451): as the sequence (P26048 29-451) above
T4 sequence (P22723 39-474): as the sequence (P22723 39-474) above
T7 sequence (P50571 26-474): as the sequence (P50571 26-474) above
T5 sequence (P50571 26-474): as above
T5 sequence (P22723 39-474): as the sequence (P22723 39-474) above
T5 sequence (Q9D6F4 36-552): as the sequence (Q9D6F4 36-552) above

## α-Bgtx-AF555: α-Bgtx coupled to Alexa-Fluor 555 (Life Technologies)
[1]
  labelling with α-BgTx-AF555: did not show any labelling
α1β1γ2 GABAAR
  staining intensity (cell surface fluorescence): 592 ± 46 a.u.
α1β2γ2 GABAAR
  staining intensity (cell surface fluorescence): 324 ± 33 a.u.
α2β1γ2 GABAAR
  mean cell surface fluorescence intensity: 1057 ± 64 a.u.
α2β2γ2 GABAAR
  mean cell surface fluorescence intensity: 1294 a.u.
α4β1γ2 GABAAR
  staining intensity (cell surface fluorescence): 90 ± 64 a.u.
α4β2γ2 GABAAR
  staining intensity (cell surface fluorescence): 64 ± 56 a.u.
[2]
  mean cell surface fluorescence intensity: 9 ± 4 a.u.
β1 homomers
  cell surface and intracellular staining: absent
β2 homomers
  cell surface and intracellular staining: absent
β3 homomers
  cell surface and intracellular staining: high levels of cell surface and intracellular staining
[3]
  binding of fluorescent α-Bgtx: do not observe any binding
